PMC5071168

Key:
[1] = target: LvTIM-Cys47Ala (Litopenaeus vannamei)
[2] = target: triosephosphate isomerase from Litopenaeus vannamei (LvTIM), wild type (Litopenaeus vannamei); experiment: SEC

catalytic efficiency (kcat/Km) of LvTIM-Cys47Ala, similar to wild-type LvTIM [1] | stoichiometry N [2] | Substance
2.33e+06 M⁻¹ s⁻¹ |  | LvTIM-Cys47Ala (enzyme)
 | 2 | triosephosphate isomerase from Litopenaeus vannamei (LvTIM), wild type (enzyme)
